The record followed here is patent US20210163945, “APTAMERS FOR TARGETING COAGULATION FACTOR XIII AND USES THEREOF” (Chang Gung University, published 2021).

Data set [1] addresses Bovine serum albumin (BSA) (Bos taurus, UniProt P02769 P02769:25-607). The data set is described as follows: dot blot, no binding under native or denatured condition. The settings on record: label: FAM or biotin.
Data set [2] addresses T1, Coagulation factor XIII (FXIII) (UniProt P00488;P05160 P00488:2-732,P05160:21-661).
T1 sequence 1: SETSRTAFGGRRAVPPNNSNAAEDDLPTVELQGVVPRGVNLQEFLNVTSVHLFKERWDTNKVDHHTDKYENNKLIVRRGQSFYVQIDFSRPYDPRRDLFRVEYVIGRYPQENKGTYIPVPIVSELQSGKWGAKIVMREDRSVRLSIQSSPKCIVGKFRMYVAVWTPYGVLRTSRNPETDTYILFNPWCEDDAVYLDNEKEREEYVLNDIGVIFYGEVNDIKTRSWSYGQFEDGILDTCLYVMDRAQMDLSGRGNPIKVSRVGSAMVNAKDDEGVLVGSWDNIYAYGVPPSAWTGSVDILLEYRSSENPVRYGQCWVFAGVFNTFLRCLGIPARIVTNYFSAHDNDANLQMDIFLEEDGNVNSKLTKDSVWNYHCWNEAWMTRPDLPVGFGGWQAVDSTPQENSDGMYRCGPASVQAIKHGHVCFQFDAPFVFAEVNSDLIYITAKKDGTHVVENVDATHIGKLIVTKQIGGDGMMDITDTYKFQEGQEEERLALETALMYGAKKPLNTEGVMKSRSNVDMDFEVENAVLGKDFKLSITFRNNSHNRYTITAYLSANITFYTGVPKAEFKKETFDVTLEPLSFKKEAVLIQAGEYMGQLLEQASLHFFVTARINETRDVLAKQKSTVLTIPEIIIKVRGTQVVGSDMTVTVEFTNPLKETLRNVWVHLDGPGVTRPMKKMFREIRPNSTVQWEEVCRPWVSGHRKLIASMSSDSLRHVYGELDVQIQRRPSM
T1 sequence 2: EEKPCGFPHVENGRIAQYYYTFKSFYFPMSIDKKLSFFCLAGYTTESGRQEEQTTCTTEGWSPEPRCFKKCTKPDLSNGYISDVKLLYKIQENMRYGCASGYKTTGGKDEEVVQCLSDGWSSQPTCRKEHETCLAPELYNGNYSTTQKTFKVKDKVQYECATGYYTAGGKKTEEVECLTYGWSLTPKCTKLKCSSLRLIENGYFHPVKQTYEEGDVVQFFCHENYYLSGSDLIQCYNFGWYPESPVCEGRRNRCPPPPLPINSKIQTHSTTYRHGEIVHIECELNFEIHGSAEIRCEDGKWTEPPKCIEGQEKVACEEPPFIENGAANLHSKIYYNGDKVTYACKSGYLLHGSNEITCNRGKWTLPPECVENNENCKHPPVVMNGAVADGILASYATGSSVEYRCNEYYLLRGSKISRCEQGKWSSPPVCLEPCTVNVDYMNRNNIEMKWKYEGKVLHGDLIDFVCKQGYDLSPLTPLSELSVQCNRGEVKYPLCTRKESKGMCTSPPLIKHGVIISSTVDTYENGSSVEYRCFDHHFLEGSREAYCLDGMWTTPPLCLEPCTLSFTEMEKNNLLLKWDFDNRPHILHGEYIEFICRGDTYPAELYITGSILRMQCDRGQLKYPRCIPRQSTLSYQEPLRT
The data set can be described thus: dot blot, binds under native and denatured conditions; PBS/Tween 20, BSA block. Conditions: chain copies: 2; label: FAM or biotin. Here is the method: Purified FXIII was blotted on a nitrocellulose (NC) membrane, and air-dried for 1 hr. Then a mixture of BSA, PBS, and Polyoxyethylene(20)sorbitan monolaurate (TWEEN™ 20) was added to the NC membrane and incubated for 1 hr, and following biotin-conjugated aptamers were added to the NC membrane and incubated for another 1 hr. The NC membrane was washed thrice using a washing buffer of PBS and Tween 20, and horseradish peroxidase (HRP)-conjugated streptavidin was added to the NC membrane and incubated for 1 hr. For coloration, a substrate of HRP was added to the NC membrane after washing, and the images of the NC membrane were acquired by a X-ray film processor.

Sequence of Bovine serum albumin (BSA) (P02769 25-607, one chain of several): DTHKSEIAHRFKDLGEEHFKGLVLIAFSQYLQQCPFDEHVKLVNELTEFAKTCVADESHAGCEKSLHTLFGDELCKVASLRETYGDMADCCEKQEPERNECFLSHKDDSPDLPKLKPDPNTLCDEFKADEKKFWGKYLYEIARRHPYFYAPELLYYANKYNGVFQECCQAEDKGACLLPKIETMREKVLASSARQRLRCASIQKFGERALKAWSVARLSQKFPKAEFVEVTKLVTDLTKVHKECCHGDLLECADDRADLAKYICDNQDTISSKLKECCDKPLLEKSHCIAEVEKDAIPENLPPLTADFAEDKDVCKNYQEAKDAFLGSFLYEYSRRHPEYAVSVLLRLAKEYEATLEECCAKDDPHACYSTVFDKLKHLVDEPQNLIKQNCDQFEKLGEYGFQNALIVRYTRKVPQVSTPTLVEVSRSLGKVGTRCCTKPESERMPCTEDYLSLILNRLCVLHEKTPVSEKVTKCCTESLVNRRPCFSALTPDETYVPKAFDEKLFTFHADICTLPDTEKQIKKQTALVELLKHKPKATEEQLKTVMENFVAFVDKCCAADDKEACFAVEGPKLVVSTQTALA

On to CGCAGCATCATTCGGGTCGGGAAGGGGTGTACGGGGCTGCG (ssDNA) [FAT2], for which the values for the binding result in data set [1] and in data set [2] were “no binding” and “binds”, respectively.
